Measured values reported in US20260265360A1, “USE OF ANTI-FAM19A5 ANTAGONISTS FOR TREATING HEARING DISORDERS” (NEURACLE SCIENCE CO., LTD., priority 2023, published 2026).

How the values were obtained:
FAM19A5 mutants M1 to M8 [1] = target: T1, FAM19A5 mutants M1 to M8 (Homo sapiens, UniProt Q7Z5A7, A66V/A69S/K72P/R67K/R71F); test: Epitope mapping ELISA with FAM19A5 mutants M1-M8; type: binding
T1 construct: made in house; host or cells: phage display with helper phage

FAM19A5 mutants M1 to M8 [2] = target: T2, FAM19A5 mutants M1 to M8 (Homo sapiens, UniProt Q7Z5A7); test: Epitope mapping ELISA with FAM19A5 mutants M1-M8; type: binding
T2 construct: made in house; host or cells: phage display with helper phage
T2 sequence (Q7Z5A7 with tags, fused parts or gaps isoform Q7Z5A7-2, change not shown): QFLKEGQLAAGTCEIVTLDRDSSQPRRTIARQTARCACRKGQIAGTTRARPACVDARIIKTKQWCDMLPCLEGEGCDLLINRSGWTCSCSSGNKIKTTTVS

T1 sequence (Q7Z5A7 26-125 isoform Q7Z5A7-2 A59V/R60K/A62S/R64F/K65P): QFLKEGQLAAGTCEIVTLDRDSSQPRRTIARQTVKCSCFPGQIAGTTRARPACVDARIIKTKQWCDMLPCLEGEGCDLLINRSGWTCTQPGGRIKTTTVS

B1: 2-13: anti-FAM19A5 antibody; VH SEQ ID NO: 35, VL SEQ ID NO: 39 (antibody, V domains shown)
VH: AVTLDESGGGLQTPGGALSLVCKASGFTFSSHGMFWVRQTPGKGLEYVAEITNDGSGTNYGSAVKGRATISRDNGQSTVRLQLNNLRAEDTGTYFCARSTYECPGGFSCWGDTGQIDAWGHGTEVIVSS
VL: ALTQPSSVSANPGETVKITCSGGSYSYGWFQQKSPGSALVTVIYWDDERPSDIPSRFSGALSGSTNTLTITGVQADDEAVYFCGTEDISGTAGVFGAGTTLTVL
modifications: 2-13 VH; 2-13 VL
B1 was tested, and the “binding to FAM19A5 mutant M4” value (FAM19A5 mutants M1 to M8 [1]) was “failed to bind” and the “binding to FAM19A5 mutant M8” value (FAM19A5 mutants M1 to M8 [2]) was “failed to bind”.
